The results in this text go back to US20230303695A1 (SHANGHAI XBH BIOTECHNOLOGY, published 2023).

Test [1] addresses T1, IGSF8 extracellular domain (ED) (Homo sapiens (Human), UniProt Q969P0 28-579).
T1 construct: also called IGSF8 ECD
T1 sequence: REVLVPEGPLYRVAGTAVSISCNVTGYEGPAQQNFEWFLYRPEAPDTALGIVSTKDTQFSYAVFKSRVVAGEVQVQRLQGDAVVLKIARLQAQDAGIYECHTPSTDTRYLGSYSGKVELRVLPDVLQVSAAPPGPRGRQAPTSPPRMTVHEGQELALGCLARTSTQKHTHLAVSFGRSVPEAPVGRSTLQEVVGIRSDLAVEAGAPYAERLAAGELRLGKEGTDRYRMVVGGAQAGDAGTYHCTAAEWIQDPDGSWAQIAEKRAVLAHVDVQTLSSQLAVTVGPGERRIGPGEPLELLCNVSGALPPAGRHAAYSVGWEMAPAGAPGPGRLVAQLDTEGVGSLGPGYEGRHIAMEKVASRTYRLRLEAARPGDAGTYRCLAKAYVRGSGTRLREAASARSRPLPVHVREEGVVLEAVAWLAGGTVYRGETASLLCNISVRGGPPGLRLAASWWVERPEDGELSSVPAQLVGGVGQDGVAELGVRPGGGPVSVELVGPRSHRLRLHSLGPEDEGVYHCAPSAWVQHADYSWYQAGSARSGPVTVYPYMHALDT
In words: ELISA on IGSF8 extracellular domain. A general note: ELISA stands for enzyme-linked immunosorbent assay.

The target in test [2] is T2, recombinant human IGSF8 extracellular domain tagged by a human Fc region (IGSF8-hFc) (human, UniProt Q969P0 28-579, biotin label in Examples 17, 18 and 28 (site not given)).
T2 construct: also called IGSF8-Fc fusion protein; IGSF8-hFc-biotin; not shown: human Fc region
T2 sequence: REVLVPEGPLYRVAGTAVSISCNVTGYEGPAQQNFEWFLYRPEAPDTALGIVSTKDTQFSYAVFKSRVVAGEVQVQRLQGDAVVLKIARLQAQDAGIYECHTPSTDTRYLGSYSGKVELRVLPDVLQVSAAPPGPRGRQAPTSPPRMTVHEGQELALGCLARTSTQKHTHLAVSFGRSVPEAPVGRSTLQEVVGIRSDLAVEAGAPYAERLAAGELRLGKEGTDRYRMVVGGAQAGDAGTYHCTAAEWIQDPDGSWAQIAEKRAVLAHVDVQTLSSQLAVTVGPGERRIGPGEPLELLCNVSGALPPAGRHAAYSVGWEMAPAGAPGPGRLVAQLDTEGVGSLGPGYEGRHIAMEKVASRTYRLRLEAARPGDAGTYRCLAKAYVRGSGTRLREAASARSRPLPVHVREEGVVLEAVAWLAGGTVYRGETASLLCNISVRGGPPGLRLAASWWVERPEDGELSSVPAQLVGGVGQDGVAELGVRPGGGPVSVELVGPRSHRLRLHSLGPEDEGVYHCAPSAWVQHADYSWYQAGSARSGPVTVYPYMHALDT
In words: SPR, Ab captured. The method, then: The binding affinities of the L1 and L2 antibodies to IGSF8 recombinant protein were determined by surface plasmon resonance (SPR). Briefly, anti-human Fab antibody was imobilized on acarboxyl-derivatized SPR chip surface, and the antibodies were captured on the resulting surface at 5 μg/ml for 30 seconds.
(In SPR one partner is held on a chip, and binding of the other changes the refractive index at the surface.)

B1: Antibody C1 (antibody, V domains shown)
VH: QVQLLQSGGGLVQPGGSLRLSCAASGFTFSRYRMSWVRQAPGKGLEWVSRISRSGGATAYADSVKGRFTISRDNSKNTLYLQMNSLRAEDTAVYYCARDATGRHYNGMDVWGRGTLVTVSS
VL: EIALTQSPSSLSASVGDRVTITCRASQTITRHLNWFQQKPGKAPNLLIHGTSALQTGVPPRFSGGGSGTDFTLTINSLQPEDFGTYYCQQSHTKPWTFGPGTKVEIKR
notes: also called anti-IGSF8 C1
As to B1, in test [1], the binding result is recorded as “binds”.

B2: Antibody C10 (antibody, V domains shown)
VH: EVQLLESGGGLVQPGGSLRLSCAASGFTFSRYRMYWVRQAPGKGLEWVSTISRSGGRTVYADSVKGRFTISRDNSKNTLYLQMNSLRAEDTAVYYCARDATGRHYNGMDVWGQGTLVTV
VL: ETTLTQSPATLSVSPGERATLSCRASQSVSSNVAWYQQKPGQAPRLLMFGSGTRATGIPARFSGSGSGTEFTLTISSLQSEDFAAYYCQQYNDWPSFGQGTRVEIKG
notes: also called anti-IGSF8 C10
Consider B2, for which the binding result in test [1] was “binds”.

B3: L1-19 (antibody, V domains shown)
VH: QVQLVESGGGVVQPGRSLRLSCAASGFTFSTYGMHWVRQAPGKGLEWVAVIWDDGSYKYYGDSVKGRFTISRDNSKNTLYLQMNSLRAEDTAVYYCARDGSGWGYAFDIWGQGTLVTVSS
VL: DIQMTQSPSSLSASVGDRVTITCQASQDISPYLNWYQQKPGKAPKLLIYDAPNLETGVPSRFSGSGSGTDFTFTISSLQPEDIATYYCQQYDSFPYTFGQGTKVEIK
On to B3, for which, in test [2], the Kd is 4580 pM, the koff was found to be 0.000705 s⁻¹ and the kon amounted to 154000 M⁻¹ s⁻¹.

B4: L1-32 (antibody, V domains shown)
VH: QVQLVESGGGVVQPGRSLRLSCAASGFTFSTYGMHWVRQAPGKGLEWVAVIWDGGSYKYYGDSVKGRFTISRDNSKNTLYLQMNSLRAEDTAVYYCARDGSGWGYAFDIWGQGTLVTVSS
VL: DIQLTQSPSSLSASVGDRVTITCQASQDIGPWLNWYQHKPGKAPKPLVFGSPNLETGVPSRFSASGSGTDFTLTISSLQPEDFATYYCQQYDSFPYTFGQGTKVEIK
As to B4, in test [2], the Kd amounted to 21 pM, the koff is 6.56e-06 s⁻¹ and the kon worked out at 312000 M⁻¹ s⁻¹.

B5: L1-23 (antibody, V domains shown)
VH: QVQLVESGGGVVQPGRSLRLSCAASGFTFSTYGMHWVRQAPGKGLEWVAVIWDDGSYKYYGDSVKGRFTISRDNSKNTLYLQMNSLRAEDTAVYYCARDGSGWGYAFDIWGQGTLVTVSS
VL: DIQLTQSPSSLSASVGDRVTITCQASQDIGPWLNWYQHKPGKAPKPLVFGSPNLETGVPSRFSASGSGTDFTLTISSLQPEDFATYYCQQYDSFPYTFGQGTKVEIK
In the case of B5, in test [2], the Kd was 2.35 pM, the koff turned out to be 1.19e-06 s⁻¹ and the kon came out at 506000 M⁻¹ s⁻¹.

B6: L1-28 (antibody, V domains shown)
VH: QVQLVESGGGVVQPGRSLRLSCAASGFTFSTYGMHWVRQAPGKGLEWVAVIWDDGSYKYYGDSVKGRFTISRDNSKNTLYLQMNSLRAEDTAVYYCARDGSGWGYAFDIWGQGTLVTVSS
VL: DIQLTQSPSSLSASVGDRVTITCQASQDIEWWLNWYQHKPGKAPKPLIYGSPNLETGVPSRFSGSGSGTDFTFTISSLQPEDIATYYCQQYDSFPYTFGQGTKVEIK
In the case of B6, in test [2], the Kd is 1.17 pM, the koff turned out to be 4.28e-07 s⁻¹ and the kon is 367000 M⁻¹ s⁻¹.

B7: L1-30 (antibody, V domains shown)
VH: QVQLVESGGGVVQPGRSLRLSCAASGFTFSTYGMHWVRQAPGKGLEWVAVIWDDGSYKYYGDSVKGRFTISRDNSKNTLYLQMNSLRAEDTAVYYCARDGSGWGYAFDIWGQGTLVTVSS
VL: DIQLTQSPSSLSASVGDRVTITCQASQDIGPWLNWYQHKPGKAPKPLVFGADNLETGVPSRFSASGSGTDFTLTISSLQPEDFATYYCQQYDSFPYTFGQGTKVEIK
Consider B7, for which, in test [2], the Kd turned out to be 6.42 pM, the koff was 3.03e-06 s⁻¹ and the kon was 472000 M⁻¹ s⁻¹.

B8: L1-21 (antibody, V domains shown)
VH: QVQLVESGGGVVQPGRSLRLSCAASGFTFSTYGMHWVRQAPGKGLEWVAVIWDDGSYKYYGDSVKGRFTISRDNSKNTLYLQMNSLRAEDTAVYYCARDGSGWGYAFDIWGQGTLVTVSS
VL: DIQLTQSPSSLSASVGDRVTITCQASQDIGPWLNWYQHKPGKAPKPLIYGSPNLETGVPSRFSGSGSGTDFTFTISSLQPEDIATYYCQQYDSFPYTFGQGTKVEIK
For the molecule B8, in test [2], the Kd is 6710 pM, the koff amounted to 0.00272 s⁻¹ and the kon amounted to 406000 M⁻¹ s⁻¹.

B9: L1-26 (antibody, V domains shown)
VH: QVQLVESGGGVVQPGRSLRLSCAASGFTFSTYGMHWVRQAPGKGLEWVAVIWDDGSYKYYGDSVKGRFTISRDNSKNTLYLQMNSLRAEDTAVYYCARDGSGWGYAFDIWGQGTLVTVSS
VL: DIQLTQSPSSLSASVGDRVTITCQASQDISPYLNWYQHKPGKAPKPLVFGSPNLETGVPSRFSASGSGTDFTLTISSLQPEDFATYYCQQYDSFPYTFGQGTKVEIK
B9: in test [2], the Kd turned out to be 987 pM, the koff turned out to be 0.000497 s⁻¹ and the kon was determined as 503000 M⁻¹ s⁻¹.

B10: L1-22 (antibody, V domains shown)
VH: QVQLVESGGGVVQPGRSLRLSCAASGFTFSTYGMHWVRQAPGKGLEWVAVIWDDGSYKYYGDSVKGRFTISRDNSKNTLYLQMNSLRAEDTAVYYCARDGSGWGYAFDIWGQGTLVTVSS
VL: DIQLTQSPSSLSASVGDRVTITCQASQDISPWLNWYQHKPGKAPKPLIYGSPNLETGVPSRFSGSGSGTDFTFTISSLQPEDIATYYCQQYDSFPYTFGQGTKVEIK
Take B10: in test [2], the Kd is 2940 pM, the koff stood at 0.000363 s⁻¹ and the kon came to 123000 M⁻¹ s⁻¹.

B11: L1-31 (antibody, V domains shown)
VH: QVQLVESGGGVVQPGRSLRLSCAASGFTFSTYGMHWVRQAPGKGLEWVAVIWDGGKYKYYGDSVKGRFTISRDNSKNTLYLQMNSLRAEDTAVYYCARDGSGWGYAFDIWGQGTLVTVSS
VL: DIQLTQSPSSLSASVGDRVTITCQASQDIGPWLNWYQHKPGKAPKPLVFRSPNLETGVPSRFSASGSGTDFTLTISSLQPEDFATYYCQQYDSFPYTFGQGTKVEIK
As to B11, in test [2], the Kd turned out to be 3.71 pM, the koff came to 7.8e-07 s⁻¹ and the kon came out at 210000 M⁻¹ s⁻¹.

B12: L1-29 (antibody, V domains shown)
VH: QVQLVESGGGVVQPGRSLRLSCAASGFTFSTYGMHWVRQAPGKGLEWVAVIWDDGSYKYYGDSVKGRFTISRDNSKNTLYLQMNSLRAEDTAVYYCARDGSGWGYAFDIWGQGTLVTVSS
VL: DIQLTQSPSSLSASVGDRVTITCQASQDIGPWLNWYQHKPGKAPKPLVFDAPNLETGVPSRFSASGSGTDFTLTISSLQPEDFATYYCQQYDSFPYTFGQGTKVEIK
On to B12, for which, in test [2], the Kd came out at 11.2 pM, the koff was 4.25e-06 s⁻¹ and the kon was found to be 381000 M⁻¹ s⁻¹.

B13: L1-24 (antibody, V domains shown)
VH: QVQLVESGGGVVQPGRSLRLSCAASGFTFSTYGMHWVRQAPGKGLEWVAVIWDDGSYKYYGDSVKGRFTISRDNSKNTLYLQMNSLRAEDTAVYYCARDGSGWGYAFDIWGQGTLVTVSS
VL: DIQLTQSPSSLSASVGDRVTITCQASQDIGPYLNWYQHKPGKAPKPLVFGSPNLETGVPSRFSASGSGTDFTLTISSLQPEDFATYYCQQYDSFPYTFGQGTKVEIK
B13: in test [2], the Kd came to 6.8 pM, the koff was found to be 3.06e-06 s⁻¹ and the kon is 450000 M⁻¹ s⁻¹.

B14: L1-33 (antibody, V domains shown)
VH: QVQLVESGGGVVQPGRSLRLSCAASGFTFSTYGMHWVRQAPGKGLEWVAVIWDGGKYKYYGDSVKGRFTISRDNSKNTLYLQMNSLRAEDTAVYYCARDGSGWGYAFDIWGQGTLVTVSS
VL: DIQLTQSPSSLSASVGDRVTITCQASQDIGPWLNWYQHKPGKAPKPLVFGSPNLETGVPSRFSASGSGTDFTLTISSLQPEDFATYYCQQYDSFPYTFGQGTKVEIK
On to B14, for which, in test [2], the Kd was 29 pM, the koff was 8.01e-06 s⁻¹ and the on-rate constant (kon) was determined as 276000 M⁻¹ s⁻¹.

B15: L1-27 (antibody, V domains shown)
VH: QVQLVESGGGVVQPGRSLRLSCAASGFTFSTYGMHWVRQAPGKGLEWVAVIWDDGSYKYYGDSVKGRFTISRDNSKNTLYLQMNSLRAEDTAVYYCARDGSGWGYAFDIWGQGTLVTVSS
VL: DIQLTQSPSSLSASVGDRVTITCQASQDISYNLNWYQHKPGKAPKPLVFGSPNLETGVPSRFSASGSGTDFTLTISSLQPEDFATYYCQQYDSFPYTFGQGTKVEIK
Turning to B15, in test [2], the Kd amounted to 1880 pM, the koff turned out to be 0.000835 s⁻¹ and the kon turned out to be 444000 M⁻¹ s⁻¹.

B16: L1-25 (antibody, V domains shown)
VH: QVQLVESGGGVVQPGRSLRLSCAASGFTFSTYGMHWVRQAPGKGLEWVAVIWDDGSYKYYGDSVKGRFTISRDNSKNTLYLQMNSLRAEDTAVYYCARDGSGWGYAFDIWGQGTLVTVSS
VL: DIQLTQSPSSLSASVGDRVTITCQASQDISPWLNWYQHKPGKAPKPLVFGSPNLETGVPSRFSASGSGTDFTLTISSLQPEDFATYYCQQYDSFPYTFGQGTKVEIK
Turning to B16, in test [2], the Kd is 4460 pM, the koff is 0.0022 s⁻¹ and the kon was 492000 M⁻¹ s⁻¹.

Broadly, the Kd is a measure of binding affinity in units of concentration. Broadly, the koff is the first-order rate constant of dissociation. Usually kon stands for the second-order rate constant of association.
